Results as given in patent publication US20150125516, “TRANSFERRIN RECEPTOR APTAMERS AND APTAMER-TARGETED DELIVERY” (ALBERT EINSTEIN COLLEGE OF MEDICINE OF YESHIVA UNIVERSITY, published 2015).

Legend:
[1] = target: transferrin receptor (TfR, CD71), native on human cells (Homo sapiens, UniProt P02786 P02786:1-760); assay: flow; apparent, Jurkat cells, RPMI 10% FBS, tRNA and ssDNA, 37 C 1 h; no staining of ATP-arrested cells; details: chain copies: 2 inferred; label: 32P (filter), AF488 or Atto647N (cells); stem with 12-nt asymmetric bulge, C-rich bulge, GNRA tetraloop
Description: Following a 1 hour incubation at 37° C., the cells were washed twice with 1 mL FACS buffer and then resuspended in 500 μL FACS buffer containing 7AAD to exclude dead cells in the analysis. The apparent binding constant was determined from a fit of the mean fluorescence versus the aptamer concentration using the Eq. 1 above.

[2] = target: transferrin receptor (TfR, CD71), recombinant from pAcGP67A-TfR (Homo sapiens, UniProt P02786 P02786:121-760); assay: filter; DPBS with Mg2+ and Ca2+, room temperature, 30 min; details: tags: His-tag; expressed in Sf9 insect cells, plasmid pAcGP67A-TfR (Addgene); chain copies: 2 inferred; label: 32P (filter), AF488 or Atto647N (cells); stem with 12-nt asymmetric bulge, C-rich bulge, GNRA tetraloop
Chain of transferrin receptor (TfR, CD71), recombinant from pAcGP67A-TfR (P02786 121-760, one chain of several): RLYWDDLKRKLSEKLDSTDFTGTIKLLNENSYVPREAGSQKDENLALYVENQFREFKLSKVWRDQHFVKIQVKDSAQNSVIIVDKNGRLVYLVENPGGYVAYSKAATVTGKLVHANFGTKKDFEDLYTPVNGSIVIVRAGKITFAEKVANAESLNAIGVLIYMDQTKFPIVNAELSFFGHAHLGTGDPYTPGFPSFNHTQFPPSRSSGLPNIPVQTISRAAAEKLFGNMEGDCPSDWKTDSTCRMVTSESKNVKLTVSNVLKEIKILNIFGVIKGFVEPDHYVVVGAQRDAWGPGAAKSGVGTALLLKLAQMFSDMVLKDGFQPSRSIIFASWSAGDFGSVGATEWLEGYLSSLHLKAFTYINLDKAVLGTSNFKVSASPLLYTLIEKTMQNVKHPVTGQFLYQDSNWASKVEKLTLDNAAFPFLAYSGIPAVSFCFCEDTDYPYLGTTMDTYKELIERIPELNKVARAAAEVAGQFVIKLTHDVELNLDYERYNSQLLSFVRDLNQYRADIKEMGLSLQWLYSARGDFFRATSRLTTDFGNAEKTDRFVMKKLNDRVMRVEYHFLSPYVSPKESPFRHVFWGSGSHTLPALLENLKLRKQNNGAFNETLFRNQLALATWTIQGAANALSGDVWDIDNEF

Chain of transferrin receptor (TfR, CD71), native on human cells (P02786 whole entry, one chain of several): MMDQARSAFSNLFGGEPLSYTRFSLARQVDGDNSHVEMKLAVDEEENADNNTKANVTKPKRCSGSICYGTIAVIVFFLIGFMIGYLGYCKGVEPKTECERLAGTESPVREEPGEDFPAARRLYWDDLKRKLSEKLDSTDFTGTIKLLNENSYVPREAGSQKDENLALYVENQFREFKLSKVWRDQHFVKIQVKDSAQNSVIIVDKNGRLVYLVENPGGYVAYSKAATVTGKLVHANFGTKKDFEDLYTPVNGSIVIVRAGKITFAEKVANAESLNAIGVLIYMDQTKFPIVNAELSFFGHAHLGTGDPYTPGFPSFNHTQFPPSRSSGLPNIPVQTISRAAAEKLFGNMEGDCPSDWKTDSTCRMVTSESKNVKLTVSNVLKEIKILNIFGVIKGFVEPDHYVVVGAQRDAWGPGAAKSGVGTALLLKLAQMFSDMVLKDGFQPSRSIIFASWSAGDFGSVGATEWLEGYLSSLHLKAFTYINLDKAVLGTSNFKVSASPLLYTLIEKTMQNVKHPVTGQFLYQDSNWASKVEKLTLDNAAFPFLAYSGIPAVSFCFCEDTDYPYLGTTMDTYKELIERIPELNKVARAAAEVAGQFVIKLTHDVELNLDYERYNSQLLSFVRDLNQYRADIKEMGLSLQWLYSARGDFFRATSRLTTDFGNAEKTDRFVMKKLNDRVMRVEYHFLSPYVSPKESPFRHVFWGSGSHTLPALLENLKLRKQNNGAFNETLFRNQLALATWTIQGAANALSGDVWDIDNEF

Q: GGGGGAUCAAUCCAAGGGACCCGGAAACGCUCCCUUACACCCC (ssRNA, 2'-F pyrimidines; 3' idT; 5' thiol C6) [c2.min] was tested. Which Kd [1] did it give?
A: 104 nM

Q: And the Kd [2]?
A: 102 nM
